Results on two molecules are retold here after US20180273595A1.

For this test, the target named is T1, recombinant His-tagged full-length ERG, P11308.
T1 chain: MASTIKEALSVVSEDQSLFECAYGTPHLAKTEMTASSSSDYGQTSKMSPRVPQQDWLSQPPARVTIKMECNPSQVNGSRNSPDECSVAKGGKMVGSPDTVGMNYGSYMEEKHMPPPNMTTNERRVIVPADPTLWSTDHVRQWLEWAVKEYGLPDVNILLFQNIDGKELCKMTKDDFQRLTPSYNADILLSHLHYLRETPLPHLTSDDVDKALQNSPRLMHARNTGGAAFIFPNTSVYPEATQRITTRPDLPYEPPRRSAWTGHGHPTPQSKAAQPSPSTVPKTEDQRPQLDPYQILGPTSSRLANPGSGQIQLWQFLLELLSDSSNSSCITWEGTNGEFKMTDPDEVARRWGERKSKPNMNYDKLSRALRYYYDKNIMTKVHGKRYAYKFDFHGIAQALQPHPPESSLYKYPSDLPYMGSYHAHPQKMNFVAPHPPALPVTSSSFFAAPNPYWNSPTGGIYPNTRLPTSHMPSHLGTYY
The test is described as follows: OctetRED BLI.

The term Kd denotes the constant that tells how readily two partners part at equilibrium. On to GRRRQRRKKRGGPLSGFSL (modifications not checked) [RI-EIP2 retroinverso peptidomimetic], for which the Kd was 1280 nM. The value for GRRRQRRKKRGGTFLYPPL (modifications not checked) [RI-EIP1 retroinverso peptidomimetic] was 940 nM.
